Assay [1] concerns the target T1, 可溶型GPC3コアタンパク質 (human, UniProt P51654 25-563).
T1 construct: also called 可溶型GPC3コア蛋白質; soluble GPC3 core protein; not shown: C-terminal His tag
The assay is described as follows: ELISA on GPC3 (Fig. 15). On the technique in general: In an ELISA, binding on a coated surface is turned into a signal by an enzyme label.
Target sequence in this assay (P51654 25-563 S495A/S509A): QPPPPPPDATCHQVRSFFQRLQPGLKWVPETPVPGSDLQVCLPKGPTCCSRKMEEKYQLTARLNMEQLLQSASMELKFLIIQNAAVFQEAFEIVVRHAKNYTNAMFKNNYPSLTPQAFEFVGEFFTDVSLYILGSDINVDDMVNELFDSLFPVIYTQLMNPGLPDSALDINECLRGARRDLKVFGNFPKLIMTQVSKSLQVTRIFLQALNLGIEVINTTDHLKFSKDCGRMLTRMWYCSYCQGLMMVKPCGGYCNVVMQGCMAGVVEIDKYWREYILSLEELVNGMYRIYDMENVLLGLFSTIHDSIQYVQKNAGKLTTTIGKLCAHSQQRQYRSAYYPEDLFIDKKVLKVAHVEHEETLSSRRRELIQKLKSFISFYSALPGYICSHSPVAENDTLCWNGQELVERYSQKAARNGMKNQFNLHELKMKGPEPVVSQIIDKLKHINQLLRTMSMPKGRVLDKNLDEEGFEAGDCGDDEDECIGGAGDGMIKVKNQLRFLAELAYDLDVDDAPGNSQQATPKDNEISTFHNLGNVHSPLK

Assay [2] addresses T1, 可溶型GPC3コアタンパク質. Description: ELISA on GPC3 (Fig. 15); reference antibody of the comparison.
Assay [3] concerns the target T2, GC-3 (human, UniProt P51654 524-563).
T2 construct: also called GST融合タンパク質GC-3(Ala524からLys563); not shown: GST (glutathione S-transferase) of vector pGEX-4T-3 (Amersham), N-terminal to the GPC3 piece
T2 chain: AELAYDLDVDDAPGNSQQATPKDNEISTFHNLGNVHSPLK
Description: Western blot of GST fusion proteins. (In general: In western blotting, separated proteins are transferred to a membrane and probed.)

The target of assay [4] is T3, GC-2 (human, UniProt P51654 510-563).
T3 construct: also called GST融合タンパク質GC-2(Gly510からLys563); not shown: GST (glutathione S-transferase) of vector pGEX-4T-3 (Amersham), N-terminal to the GPC3 piece
T3 sequence: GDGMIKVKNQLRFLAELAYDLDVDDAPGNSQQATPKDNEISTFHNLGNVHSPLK
Description: Western blot of GST fusion proteins.

The target of assay [5] is T4, GC-1 (human, UniProt P51654 495-563).
T4 construct: Made in E. coli DH5α, purified on glutathione resin; also called GST融合タンパク質GC-1(Ser495からLys563); not shown: GST (glutathione S-transferase) of vector pGEX-4T-3 (Amersham), N-terminal to the GPC3 piece
T4 sequence: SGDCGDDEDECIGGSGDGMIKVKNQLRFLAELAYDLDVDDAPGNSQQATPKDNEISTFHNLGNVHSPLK
The assay is described as follows: Western blot of GST fusion proteins.

Assay [6] deals with T1, 可溶型GPC3コアタンパク質. The assay is described as follows: ELISA screening on immobilised soluble GPC3 core protein.
Assay [7] deals with T1, 可溶型GPC3コアタンパク質. Description: ELISA, purified antibody from 10 μg/mL in 3-fold steps on immobilised soluble GPC3 core protein.
Assay [8] has as its target T1, 可溶型GPC3コアタンパク質. Description: ELISA screening of hybridoma supernatant on immobilised soluble GPC3 core protein.
Assay [9] deals with T2, GC-3. Description: Western blot of GST fusion proteins, reducing SDS-PAGE.
The target in assay [10] is T3, GC-2. Described as above.
Assay [11] deals with T4, GC-1. The description is as above.

Where a chain is given by its changes, count along the chain named.

B1: ヒト化GC33 H鎖ver.j / L鎖ver.a (antibody, human IgG1, V domains shown)
VH: QVQLVQSGAEVKKPGASVKVSCKASGYTFTDYEMHWVRQAPGQGLEWMGALDPKTGDTAYSQKFKGRVTLTADKSTSTAYMELSSLRSEDTAVYYCTRFYSYTYWGQGTLVTVSS
VL: DVVMTQSPLSLPVTPGEPASISCRSSQSLVHSNGNTYLHWYLQKPGQSPQLLIYKVSNRFSGVPDRFSGSGSGTDFTLKISRVEAEDVGVYYCSQNTHVPPTFGQGTKLEIK
notes: Human IgG1 / κ constant regions; also called GC33 VH ver.j
In the case of B1, in the assay with 可溶型GPC3コアタンパク質 [1], the binding result is given as “binds”.

B2: GC33マウス−ヒトキメラ抗体 (antibody, V domains shown)
VH: QVQLQQSGAELVRPGASVKLSCKASGYTFTDYEMHWVKQTPVHGLKWIGALDPKTGDTAYSQKFKGKATLTADKSSSTAYMELRSLTSEDSAVYYCTRFYSYTYWGQGTLVTVSA
VL: B1 VL with S7T, T14S, P15L, E17D, P18Q, Q50K, V88L, Y92F, Q105S
notes: Mouse GC33 variable regions on human IgG1 and human κ constant regions (vectors HEFgγ1, HEFgκ); also called キメラGC33抗体; マウスGC33可変領域の抗体(mouse / mouse)
On to B2, for which the binding result with 可溶型GPC3コアタンパク質 [2] is recorded as “binds”.

B3: GC33 (antibody, V domains shown)
VH: B2 VH
VL: B1 VL with S7T, T14S, P15L, E17D, P18Q, Q50K, V88L, Y92F, Q105S
notes: also called GC33抗体
Consider B3, for which the binding result in the assay with GC-3 [3], with GC-2 [4], with GC-1 [5] and with 可溶型GPC3コアタンパク質 [6] was “binds” each time.

B4: GC33 ver.a / mouse (antibody, human IgG1, V domains shown)
VH: B1 VH with Q6E, L70I, K74E, T97A
VL: B1 VL with S7T, T14S, P15L, E17D, P18Q, Q50K, V88L, Y92F, Q105S
notes: Humanised H chain variable region ver.a combined with the mouse GC33 L chain variable region; human IgG1 / κ constant regions; also called H鎖 ver.a / L鎖 マウスGC33
Regarding B4, the binding result in the assay with 可溶型GPC3コアタンパク質 [1] is “binds”.

B5: ヒト化GC33(ver.a / ver.a) (antibody, V domains shown)
VH: B1 VH with Q6E, L70I, K74E, T97A
VL: B1 VL
notes: Human IgG1 / human κ constant regions (HEFgγ1, HEFgκ); also called GC33 VH ver.a / GC33 VL ver.a
In the case of B5, in the assay with 可溶型GPC3コアタンパク質 [1], the binding result is “binds”.

B6: GC199 (antibody, V domains shown)
VH: QIQLEQSGPELKKPGETVKISCKASGYIFRDYSMHWVKQAPGKGLKWMGWINTETGEPTYADDFKGRFAFSLETSASTAYLQINNLKNEDTATYFCTSLYWGQGTLVTVSA
VL: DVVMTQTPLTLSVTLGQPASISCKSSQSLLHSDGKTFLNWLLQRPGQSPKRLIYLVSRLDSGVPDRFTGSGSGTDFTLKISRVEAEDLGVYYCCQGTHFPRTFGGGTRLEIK
notes: Mouse hybridoma antibody from GC-3 immunisation; also called GC199抗体
Turning to B6, the binding result with GC-3 [3], with GC-2 [4], with GC-1 [5] and in the assay with 可溶型GPC3コアタンパク質 [6] was “binds” in each case.

B7: L9G11 (antibody, V domains shown)
VH: QVQLQQPGAELVKPGASVKLSCKASGYTFTSYWMHWVKQRPGQGLEWIGTIDPSDSETHYNLQFKDTATLTVDKSSSTAYMQLSSLTSEDSAVYYCIRGAFYSSYSYWAWFAYWGQGTLVTVSA
VL: DIVLTQSPTSLAVSLGQSVTISCRASESVEYYGTSLMQWYQQKPGQPPKLLIYGASNVESGVPARFSGSGSGTDFSLNIHPVEEDDIAMYFCQQSRKVPYTFGSGTKLEIK
notes: Mouse hybridoma antibody
Take B7: the binding result in the assay with 可溶型GPC3コアタンパク質 [7] is listed as “binds”.

B8: M6B1 (antibody, V domains shown)
VH: EVQLVESGGDLVKPGGSLKLSCAASGFTFSSYAMSWVRQTPEKRLEWVAAINSNGGTTYYPDTMKDRFTISRDNAKNTLYLQMSSLRSEDSALYYCTRHNGGYENYGWFAYWGQGTLVTVSA
VL: DIQMTQSPSSLSASLGGKVTITCKASQDINKNIIWYQHKPGKGPRLLIWYTSTLQPGIPSRFSGSGSGRDYSFSISNLEPEDIATYYCLQYDNLPRTFGGGTKLEIK
notes: Mouse hybridoma antibody
For B8, the binding result with 可溶型GPC3コアタンパク質 [7] is on record as “binds”.

B9: M13B3 (antibody, V domains shown)
VH: EVHLVESGGGLVKPGGSLKLSCAASGFTFSNYAMSWVRQTPEKRLEWVAAINNNGDDTYYLDTVKDRFTISRDNAKNTLYLQMSSLRSEDTALYYCVRQGGAYWGQGTLVTVSA
VL: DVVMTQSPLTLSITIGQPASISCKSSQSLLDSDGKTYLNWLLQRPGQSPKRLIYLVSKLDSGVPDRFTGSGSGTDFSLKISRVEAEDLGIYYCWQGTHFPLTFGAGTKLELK
notes: Mouse hybridoma antibody
For the molecule B9, in the assay with 可溶型GPC3コアタンパク質 [7], the binding result was “binds”.

B10: M10D2 (antibody, V domains shown)
VH: QVQLQQPGAELVKPGASVKLSCKASGYTFTSYWMHWVKQRPGQGLEWIGEIDPSDSYTYYNQKFRGKATLTVDKSSNTAYMQLSSLTSEDSAVYYCSRSNLGDGHYRFPAFPYWGQGTLVTVSA
VL: DIVLTQSPATLSVTPGDRVSLSCRASHSISNFLHWYPQKSHESPRLLIKYASQSISGIPSRFSGNGSGTDFTLSINSVETEDFGMYFCQQSNIWSLTFGAGTKLELK
notes: Mouse hybridoma antibody
On to B10, for which, in the assay with 可溶型GPC3コアタンパク質 [8], the binding result was “binds”.

B11: M5B9 (antibody, V domains shown)
VH: EVQLQQSGTVLARPGASVKMSCKASGYTFTGYWMHWVKQRPGQGLEWIGAIYPGNSDTNYNQKFKGKAKLTAVTSASTAYMELSSLTNEDAAVYHCTRSGDLTGGLAYWGQGTLVTVSA
VL: DIVMTQAAFSNPVTLGTSASISCRSSKSLLHSNGITYLYWFLQKPGQSPQLLIYQMSNLASGVPDRFSSSGSGTDFTLRISRVEAEDVGVYYCAQNLELPYTFGSGTKLEIK
notes: Mouse hybridoma antibody
For the molecule B11, the binding result with 可溶型GPC3コアタンパク質 [8] is given as “binds”.

B12: M11F1 (antibody, V domains shown)
VH: QVTLKESGPGILQPSQTLSLTCSFSGFSLSIYGMGVGWIRQPSGKGLEWLANIWWNDDKYYNSALKSRLTISKDTSNNQVFLKISSVDTADTATYYCAQIGYFYFDYWGQGTTLTVSS
VL: DVVMTQTPLSLPVSLGDQASISCRSSQSLVHSNGNTYLHWYLQKPGQSPKLLIYKVSNRFSGVPDRFSGSGSGTDFTLKISRVEAEDLGVYFCSQSTHVPWTFGGGTKLEIK
notes: Mouse hybridoma antibody
In the case of B12, the binding result with GC-3 [9], in the assay with GC-2 [10], with GC-1 [11] and with 可溶型GPC3コアタンパク質 [7] was “binds” each time.

B13: GC179 (antibody, V domains shown)
VH: EVQLVETGGGLVQPEGSLKLSCAASGFSFNINAMNWVRQAPGKGLEWVARIRSESNNYATYYGDSVKDRFTISRDDSQNMLYLQMNNLKTEDTAIYYCVREVTTSFAYWGQGTLVTVSA
VL: DIVMTQSAPSVPVTPGESVSISCKSSKSLLHSNGNTYLNWFLQRPGQSPQLLIYWMSNLASGVPDRFSGSGSGTAFTLRISRVEAEDVGVYYCMQHIEYPFTFGTGTKLEIK
notes: Mouse hybridoma antibody from GC-3 immunisation
Consider B13, for which the binding result in the assay with GC-3 [3], in the assay with GC-2 [4], with GC-1 [5] and with 可溶型GPC3コアタンパク質 [6] was “binds” throughout.

The record behind these values is patent publication JP2007300927A (dated 2007).
